Test system: MS2 coat protein
Test: apparent KD of MS2 coat protein; designed switch direction (-1 OFF switch, 1 ON switch): 1; higher = weaker reporter binding
How it was run: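 Normalised cluster fluorescence was curve-fitted, and each design's median over clusters is its apparent KD. Before this, SNAP-549-labelled MS2 coat protein was titrated from 0.7 or 1.5 nM, doubling to 3 µM, over RNA switches transcribed on Illumina chips by stalled E. coli RNA polymerase. Titrations had no input, 200 uM small-molecule ligand, or an oligonucleotide input, and steps lasted 0.8–1.5 h (lowest) to 10–20 min (highest).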

[1] = input ligand: microRNA oligo, concentration not stated
[2] = Eterna round: R95, input ligand: microRNA oligo, concentration not stated
[3] = Eterna round: R95, input ligand: FMN 200 uM
[4] = Eterna round: R95, input ligand: none

| Sequence | apparent KD of MS2 coat protein (input ligand: FMN 200 uM) | apparent KD of MS2 coat protein [1] | apparent KD of MS2 coat protein (input ligand: none) | apparent KD of MS2 coat protein [2] | apparent KD of MS2 coat protein [3] | apparent KD of MS2 coat protein [4] |
| --- | --- | --- | --- | --- | --- | --- |
| GCUACCAAAGAAGCCAACAUGAGGAUCACCCAUGUAUGUUGGUAGGAUAUCGUUUGCAAAGCAAACGAGAAGGGCUAAGGUAGC [Mat - Same State NG 3 - JL Mod - D77] (Eterna round: R96, puzzle: Same State NG 3) | 138 nM | 99.2 nM | 107 nM | – | – | – |
| GCUAGAAUAAACGCCUACAUGAGGAUCACCCAUGUAUGUAGGCAGGAUAUCGUAUGCAAAGCAUACGAGAAGGGCCUUACUAGC [Mat - Same State NG 3 - JL Mod - D33] (Eterna round: R96, puzzle: Same State NG 3) | 25.7 nM | 27.7 nM | 43.4 nM | – | – | – |
| GCUAGGAAAUAAGCCAACAUGAGGAUCACCCAUGUAUGUUGGUAGGAUAUCGUUUGCAAAGCAAACGAGAAGGGCUAACCUAGC [Mat - Same State NG 3 - JL Mod - D70] (Eterna round: R96, puzzle: Same State NG 3) | 72.2 nM | 70.6 nM | 85.9 nM | – | – | – |
| GCUCCAUUACGAGGAUAUGGGAAAGGAAGUGUACCAGAAGGCGUGAAAAGGUACAUGAGGAUCACCCAUGUACCCGGGAGCAAA [PowerStrip SSNG 1.11] (Eterna round: R96, puzzle: Same State NG 1) | 23.1 nM | 19.6 nM | 20.3 nM | – | – | – |
| GCUCCGCAAUACUUUCACAUGAGGAUCACCCAUGUUCACGUUAAGGAUAUCUAUUGUGAGACAGUAGAGAAGGUAGCGAGCGAC [Eternabot solution 11] (Eterna round: R96, puzzle: Same State NG 3) | 25.7 nM | 15.2 nM | 24.2 nM | – | – | – |
| GCUCGAAUCAAAACCAACAUGAGGAUCACCCAUGUAUGUUGGUAGGAUAUCGUUUGUAAAACAAACGAGAAGGGCCAAACGAGC [SameState NG3 #4] (Eterna round: R96, puzzle: Same State NG 3) | 53 nM | 93.3 nM | 118 nM | – | – | – |
| GCUCGACGUACGGCCUACAUGAGGAUCACCCAUGUGACUGGGCAGGAUAUCUAAAUGCAGAAUGUAGAGAAGGGCCCGUCGAGC [SameState NG3 #50] (Eterna round: R96, puzzle: Same State NG 3) | 323 nM | 35.9 nM | 384 nM | – | – | – |
| GCUCGACGUAUUGUCUACAUGAGGAUCACCCAUGUAGGUGCGAAGGAUAUCUACGUGUUUCAUGUAGAGAAGGUCGUGUCGAGC [SameState NG3 #93] (Eterna round: R96, puzzle: Same State NG 3) | 36.3 nM | 35.1 nM | 46.4 nM | – | – | – |
| GCUCGACGUUCGGCCUACAUGAGGAUCACCCAUGUGACUGGGCAGGAUAUCUAAAUGCAGAAUGUAGAGAAGGGCCCGUCGAGC [SameState NG3 #51] (Eterna round: R96, puzzle: Same State NG 3) | 168 nM | 43.4 nM | 190 nM | – | – | – |
| GCUCGAUGAGCGUUCUACAUGAGGAUCACCCAUGUUCGUGGGCAGGAUAUUUACAUGCAGAGUGUAGAGAAGGGCCCAUCGAGC [SameState NG3 #66] (Eterna round: R96, puzzle: Same State NG 3) | 205 nM | 117 nM | 838 nM | – | – | – |
| GCUCGAUGAUAGGCCUACAUGAGGAUCACCCAUGUAACUGGGCAGGAUAUCUAAAUGCAGAAUGUAGAGAAGGGCCCGUCGAGC [SameState NG3 #53] (Eterna round: R96, puzzle: Same State NG 3) | 220 nM | 86.8 nM | 230 nM | – | – | – |
| GCUCGGCUGAUGGCCCACAUGAGGAUCACCCAUGUGACUGGGCAGGAUAUCUAGAUUCAGGAUGUAGAGAAGGGCCUGCCGAGC [SameState NG3 #40] (Eterna round: R96, puzzle: Same State NG 3) | 331 nM | 77.3 nM | 188 nM | – | – | – |
| GCUCUACAUGAGGAUCACCCAUGUCCAUCCGCACGAGGAUAUGCAUGGGCGAAAGCUGGUGCAGAAGGCGUGGGAC [Tr3Pin] (puzzle: Same State 1) | – | – | – | 409 nM | – | – |
| GCUGGAAACUACAUGAGGAUCACCCAUGUUCCGGAAACGGCACAGGAUAUCUGUCCGAAAAGGUCAGAGAAGGGUGAAACCAGC [Fiskers NG3ss - 84] (Eterna round: R96, puzzle: Same State NG 3) | 106 nM | 90.3 nM | 1020 nM | – | – | – |
| GCUGGCAUGCAAGGAUAUCCUUCCGAGUAGGAAGGAGAAGGUGCUUGUGGGACAUGAGGAUCACCCAUGUAUGUUGGCCACGAC [Inrala] (Eterna round: R96, puzzle: Same State NG 1) | – | 82.1 nM | – | – | – | – |
| GCUUGCCGCACAGGAUAUGGGUGCCUGUACAUGAGGAUCACCCAUGUUAAGGGACGGAUUACGAACCAGAAGGGUGAGGCGGGC [Lereatle] (Eterna round: R96, puzzle: Same State NG 2) | 59.4 nM | 119 nM | 473 nM | – | – | – |
| GGAAUAUGAUGUUACAUGAGGAUCACCCAUGUAGUAAUAACUAAGGAUAUCUGAAAAGGAGGAGAAGAGAAGGUAGGAUCAUAA [AK SSNG3-V2-10.1] (Eterna round: R96, puzzle: Same State NG 3) | 13.3 nM | 22.5 nM | 33.3 nM | – | – | – |
| GGAAUAUGAUGUUACAUGAGGAUCACCCAUGUAGUGAUAACUAAGGAUAUUUGAAAGGAAGGAGAAGAGAAGGUAGGAUCAUAA [AK SSNG3-V2-12] (Eterna round: R96, puzzle: Same State NG 3) | 50.9 nM | 34.3 nM | 55.4 nM | – | – | – |
| GGAAUAUUUACAGGAUAUCAUUUGUAAAUUCGAUGAGAAGGGUAGAUGUCUUACACGACUUGUUACAUGAGGAUCACCCAUGUU [SameState NG1 #8] (Eterna round: R96, puzzle: Same State NG 1) | – | 34 nM | – | – | – | – |
| GGACCCUUCGGAGGAUAUUCUCAGUAACAGUAAGAAGAAGGCCGUAAGUCAUACGCGCGUUACAUGAGGAUCACCCAUGUGUGG [Eternabot solution 47] (Eterna round: R96, puzzle: Same State NG 1) | 149 nM | 150 nM | 333 nM | – | – | – |
| GGACGUCAUCUCACUGAUUAACAUGAGGAUCACCCAUGUUCACAGGAUAUGAGUCCGAUUAGGACUCAGAAGGGUGAGACGUCC [Fiskers NG3ss - 47] (Eterna round: R96, puzzle: Same State NG 3) | 19.3 nM | 16.8 nM | 19.3 nM | – | – | – |
| GGAGAACAUGAGGAUCACCCAUGUAAGAGAGUUGUAGGAUAUGUGAGGAGCAGAGGAUGAACAGAAGGACAUGGAG [JR_SS!_Sub070] (puzzle: Same State 1) | – | – | – | 49.3 nM | 42 nM | 56.4 nM |
| GGAGAGAGAGCACAGGAUAUGCGAGGAGAGACAUGAGGAUCACCCAUGUAAGAGAGAGAGGAGAGGUAGAAGGGUGAGAGAGAGG [Altered State 2-21 - Jieux - Same State 2] (puzzle: Same State 2) | – | – | – | 62.7 nM | 150 nM | 92.3 nM |
| GGAGAGAGAGCGGAGGAUAUUCAAGGAGAGACAUGAGGAUCACCCAUGUAAGAGAGAGAGGAGAGGAAGAAGGCUGAGAGAGAGG [Altered State 2-10 - Jieux - Same State 2] (puzzle: Same State 2) | – | – | – | 26.9 nM | 32.1 nM | 42.8 nM |
| GGAGCCAAGGCAGGAUAUUCAUUUAAAUAAACAUGAGGAUCACCCAUGUAGGCCAGAAGGCCUUGGGAGAAGGGCCAUGGCUCG [Xeonanis - 13 mod7] (Eterna round: R96, puzzle: Same State NG 2) | 17.7 nM | 72.8 nM | 88.1 nM | – | – | – |
| GGAGCCGGCACCGAGGAUAUUCAUAUUAAAACAUGAGGAUCACCCAUGUAGAGCAGAAGCUCUUGGGAGAAGGCGGAUCGGCUCG [Xeonanis - 27] (puzzle: Same State 2) | – | – | – | 306 nM | 28.4 nM | 549 nM |
| GGAGCCGGCACUGAGGAUAUUCAUAAUAAAACAUGAGGAUCACCCAUGUAGGCCAGAAGGCCUUGGGAGAAGGCAGGUCGGCUCA [Mat - Same State 2 - Mod of UCT - D66] (puzzle: Same State 2) | – | – | – | 153 nM | 18.3 nM | 217 nM |
